Experimental data: patent US20210388087A1 (Chugai, published 2021)

Target: T1, Human CD3eg linker (human)
T1 construct: Single-chain construct; also called recombinant human CD3
T1 chain: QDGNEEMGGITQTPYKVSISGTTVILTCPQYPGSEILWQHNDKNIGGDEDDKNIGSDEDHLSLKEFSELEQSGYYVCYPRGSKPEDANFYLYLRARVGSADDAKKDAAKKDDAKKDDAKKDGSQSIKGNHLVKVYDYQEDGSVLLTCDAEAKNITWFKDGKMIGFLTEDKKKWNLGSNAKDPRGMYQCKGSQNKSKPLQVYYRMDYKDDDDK
Assay: SPR; fold vs parent H183/L072

| Binder | fold change of affinity [fold] |
| --- | --- |
| H183/L072 VL L33H (antibody, name in Kabat numbering, V domains shown) VH: QVQLVESGGGLVQPGRSLRLSCAASGFTFSNAWMHWVRQAPGKGLEWVAQIKDKGNAYAAYYAPSVKGRFTISRDDSKNSIYLQMNSLKTEDTAVYYCHYVHYASASTVLPAFGVDAWGQGTTVTVSS VL: DIVMTQSPLSLPVTPGEPASISCQASQELVHMNRNTYHHWYQQKPGQAPRLLIYKVSNRFPGVPDRFSGSGSGTDFTLKISRVEAEDVGVYYCAQGTSVPFTFGQGTKLEIK | 1.4 |
| H183/L072 VL L33Q (antibody, name in Kabat numbering, V domains shown) VH: QVQLVESGGGLVQPGRSLRLSCAASGFTFSNAWMHWVRQAPGKGLEWVAQIKDKGNAYAAYYAPSVKGRFTISRDDSKNSIYLQMNSLKTEDTAVYYCHYVHYASASTVLPAFGVDAWGQGTTVTVSS VL: DIVMTQSPLSLPVTPGEPASISCQASQELVHMNRNTYQHWYQQKPGQAPRLLIYKVSNRFPGVPDRFSGSGSGTDFTLKISRVEAEDVGVYYCAQGTSVPFTFGQGTKLEIK | 1.7 |
| H183/L072 VL M27eL (antibody, name in Kabat numbering, V domains shown) VH: QVQLVESGGGLVQPGRSLRLSCAASGFTFSNAWMHWVRQAPGKGLEWVAQIKDKGNAYAAYYAPSVKGRFTISRDDSKNSIYLQMNSLKTEDTAVYYCHYVHYASASTVLPAFGVDAWGQGTTVTVSS VL: DIVMTQSPLSLPVTPGEPASISCQASQELVHLNRNTYLHWYQQKPGQAPRLLIYKVSNRFPGVPDRFSGSGSGTDFTLKISRVEAEDVGVYYCAQGTSVPFTFGQGTKLEIK | 1 |
| H183/L072 VL M27eE (antibody, name in Kabat numbering, V domains shown) VH: QVQLVESGGGLVQPGRSLRLSCAASGFTFSNAWMHWVRQAPGKGLEWVAQIKDKGNAYAAYYAPSVKGRFTISRDDSKNSIYLQMNSLKTEDTAVYYCHYVHYASASTVLPAFGVDAWGQGTTVTVSS VL: DIVMTQSPLSLPVTPGEPASISCQASQELVHENRNTYLHWYQQKPGQAPRLLIYKVSNRFPGVPDRFSGSGSGTDFTLKISRVEAEDVGVYYCAQGTSVPFTFGQGTKLEIK | 1 |
| H183/L072 VL M27eD (antibody, name in Kabat numbering, V domains shown) VH: QVQLVESGGGLVQPGRSLRLSCAASGFTFSNAWMHWVRQAPGKGLEWVAQIKDKGNAYAAYYAPSVKGRFTISRDDSKNSIYLQMNSLKTEDTAVYYCHYVHYASASTVLPAFGVDAWGQGTTVTVSS VL: DIVMTQSPLSLPVTPGEPASISCQASQELVHDNRNTYLHWYQQKPGQAPRLLIYKVSNRFPGVPDRFSGSGSGTDFTLKISRVEAEDVGVYYCAQGTSVPFTFGQGTKLEIK | 0.8 |
| H183/L072 VL L33V (antibody, name in Kabat numbering, V domains shown) VH: QVQLVESGGGLVQPGRSLRLSCAASGFTFSNAWMHWVRQAPGKGLEWVAQIKDKGNAYAAYYAPSVKGRFTISRDDSKNSIYLQMNSLKTEDTAVYYCHYVHYASASTVLPAFGVDAWGQGTTVTVSS VL: DIVMTQSPLSLPVTPGEPASISCQASQELVHMNRNTYVHWYQQKPGQAPRLLIYKVSNRFPGVPDRFSGSGSGTDFTLKISRVEAEDVGVYYCAQGTSVPFTFGQGTKLEIK | 0.4 |
| H183/L072 VL M27eQ (antibody, name in Kabat numbering, V domains shown) VH: QVQLVESGGGLVQPGRSLRLSCAASGFTFSNAWMHWVRQAPGKGLEWVAQIKDKGNAYAAYYAPSVKGRFTISRDDSKNSIYLQMNSLKTEDTAVYYCHYVHYASASTVLPAFGVDAWGQGTTVTVSS VL: DIVMTQSPLSLPVTPGEPASISCQASQELVHQNRNTYLHWYQQKPGQAPRLLIYKVSNRFPGVPDRFSGSGSGTDFTLKISRVEAEDVGVYYCAQGTSVPFTFGQGTKLEIK | 1.1 |
| H183/L072 VL L33S (antibody, name in Kabat numbering, V domains shown) VH: QVQLVESGGGLVQPGRSLRLSCAASGFTFSNAWMHWVRQAPGKGLEWVAQIKDKGNAYAAYYAPSVKGRFTISRDDSKNSIYLQMNSLKTEDTAVYYCHYVHYASASTVLPAFGVDAWGQGTTVTVSS VL: DIVMTQSPLSLPVTPGEPASISCQASQELVHMNRNTYSHWYQQKPGQAPRLLIYKVSNRFPGVPDRFSGSGSGTDFTLKISRVEAEDVGVYYCAQGTSVPFTFGQGTKLEIK | 0 |
| H183/L072 VL M27eP (antibody, name in Kabat numbering, V domains shown) VH: QVQLVESGGGLVQPGRSLRLSCAASGFTFSNAWMHWVRQAPGKGLEWVAQIKDKGNAYAAYYAPSVKGRFTISRDDSKNSIYLQMNSLKTEDTAVYYCHYVHYASASTVLPAFGVDAWGQGTTVTVSS VL: DIVMTQSPLSLPVTPGEPASISCQASQELVHPNRNTYLHWYQQKPGQAPRLLIYKVSNRFPGVPDRFSGSGSGTDFTLKISRVEAEDVGVYYCAQGTSVPFTFGQGTKLEIK | 1.2 |
| H183/L072 VL M27eN (antibody, name in Kabat numbering, V domains shown) VH: QVQLVESGGGLVQPGRSLRLSCAASGFTFSNAWMHWVRQAPGKGLEWVAQIKDKGNAYAAYYAPSVKGRFTISRDDSKNSIYLQMNSLKTEDTAVYYCHYVHYASASTVLPAFGVDAWGQGTTVTVSS VL: DIVMTQSPLSLPVTPGEPASISCQASQELVHNNRNTYLHWYQQKPGQAPRLLIYKVSNRFPGVPDRFSGSGSGTDFTLKISRVEAEDVGVYYCAQGTSVPFTFGQGTKLEIK | 0.9 |
| H183/L072 VL M27eH (antibody, name in Kabat numbering, V domains shown) VH: QVQLVESGGGLVQPGRSLRLSCAASGFTFSNAWMHWVRQAPGKGLEWVAQIKDKGNAYAAYYAPSVKGRFTISRDDSKNSIYLQMNSLKTEDTAVYYCHYVHYASASTVLPAFGVDAWGQGTTVTVSS VL: DIVMTQSPLSLPVTPGEPASISCQASQELVHHNRNTYLHWYQQKPGQAPRLLIYKVSNRFPGVPDRFSGSGSGTDFTLKISRVEAEDVGVYYCAQGTSVPFTFGQGTKLEIK | 0.9 |
| H183/L072 VL M27eF (antibody, name in Kabat numbering, V domains shown) VH: QVQLVESGGGLVQPGRSLRLSCAASGFTFSNAWMHWVRQAPGKGLEWVAQIKDKGNAYAAYYAPSVKGRFTISRDDSKNSIYLQMNSLKTEDTAVYYCHYVHYASASTVLPAFGVDAWGQGTTVTVSS VL: DIVMTQSPLSLPVTPGEPASISCQASQELVHFNRNTYLHWYQQKPGQAPRLLIYKVSNRFPGVPDRFSGSGSGTDFTLKISRVEAEDVGVYYCAQGTSVPFTFGQGTKLEIK | 0.9 |
| H183/L072 VL M27eA (antibody, name in Kabat numbering, V domains shown) VH: QVQLVESGGGLVQPGRSLRLSCAASGFTFSNAWMHWVRQAPGKGLEWVAQIKDKGNAYAAYYAPSVKGRFTISRDDSKNSIYLQMNSLKTEDTAVYYCHYVHYASASTVLPAFGVDAWGQGTTVTVSS VL: DIVMTQSPLSLPVTPGEPASISCQASQELVHANRNTYLHWYQQKPGQAPRLLIYKVSNRFPGVPDRFSGSGSGTDFTLKISRVEAEDVGVYYCAQGTSVPFTFGQGTKLEIK | 1.3 |
| H183/L072 VL L33T (antibody, name in Kabat numbering, V domains shown) VH: QVQLVESGGGLVQPGRSLRLSCAASGFTFSNAWMHWVRQAPGKGLEWVAQIKDKGNAYAAYYAPSVKGRFTISRDDSKNSIYLQMNSLKTEDTAVYYCHYVHYASASTVLPAFGVDAWGQGTTVTVSS VL: DIVMTQSPLSLPVTPGEPASISCQASQELVHMNRNTYTHWYQQKPGQAPRLLIYKVSNRFPGVPDRFSGSGSGTDFTLKISRVEAEDVGVYYCAQGTSVPFTFGQGTKLEIK | 0.3 |
| H183/L072 VL L33N (antibody, name in Kabat numbering, V domains shown) VH: QVQLVESGGGLVQPGRSLRLSCAASGFTFSNAWMHWVRQAPGKGLEWVAQIKDKGNAYAAYYAPSVKGRFTISRDDSKNSIYLQMNSLKTEDTAVYYCHYVHYASASTVLPAFGVDAWGQGTTVTVSS VL: DIVMTQSPLSLPVTPGEPASISCQASQELVHMNRNTYNHWYQQKPGQAPRLLIYKVSNRFPGVPDRFSGSGSGTDFTLKISRVEAEDVGVYYCAQGTSVPFTFGQGTKLEIK | 0 |
| H183/L072 VL M27eK (antibody, name in Kabat numbering, V domains shown) VH: QVQLVESGGGLVQPGRSLRLSCAASGFTFSNAWMHWVRQAPGKGLEWVAQIKDKGNAYAAYYAPSVKGRFTISRDDSKNSIYLQMNSLKTEDTAVYYCHYVHYASASTVLPAFGVDAWGQGTTVTVSS VL: DIVMTQSPLSLPVTPGEPASISCQASQELVHKNRNTYLHWYQQKPGQAPRLLIYKVSNRFPGVPDRFSGSGSGTDFTLKISRVEAEDVGVYYCAQGTSVPFTFGQGTKLEIK | 1.4 |
| H183/L072 VL L33K (antibody, name in Kabat numbering, V domains shown) VH: QVQLVESGGGLVQPGRSLRLSCAASGFTFSNAWMHWVRQAPGKGLEWVAQIKDKGNAYAAYYAPSVKGRFTISRDDSKNSIYLQMNSLKTEDTAVYYCHYVHYASASTVLPAFGVDAWGQGTTVTVSS VL: DIVMTQSPLSLPVTPGEPASISCQASQELVHMNRNTYKHWYQQKPGQAPRLLIYKVSNRFPGVPDRFSGSGSGTDFTLKISRVEAEDVGVYYCAQGTSVPFTFGQGTKLEIK | 0 |
| H183/L072 VL L33M (antibody, name in Kabat numbering, V domains shown) VH: QVQLVESGGGLVQPGRSLRLSCAASGFTFSNAWMHWVRQAPGKGLEWVAQIKDKGNAYAAYYAPSVKGRFTISRDDSKNSIYLQMNSLKTEDTAVYYCHYVHYASASTVLPAFGVDAWGQGTTVTVSS VL: DIVMTQSPLSLPVTPGEPASISCQASQELVHMNRNTYMHWYQQKPGQAPRLLIYKVSNRFPGVPDRFSGSGSGTDFTLKISRVEAEDVGVYYCAQGTSVPFTFGQGTKLEIK | 1.1 |
| H183/L072 VL M27eI (antibody, name in Kabat numbering, V domains shown) VH: QVQLVESGGGLVQPGRSLRLSCAASGFTFSNAWMHWVRQAPGKGLEWVAQIKDKGNAYAAYYAPSVKGRFTISRDDSKNSIYLQMNSLKTEDTAVYYCHYVHYASASTVLPAFGVDAWGQGTTVTVSS VL: DIVMTQSPLSLPVTPGEPASISCQASQELVHINRNTYLHWYQQKPGQAPRLLIYKVSNRFPGVPDRFSGSGSGTDFTLKISRVEAEDVGVYYCAQGTSVPFTFGQGTKLEIK | 0.9 |
| H183/L072 VL M27eG (antibody, name in Kabat numbering, V domains shown) VH: QVQLVESGGGLVQPGRSLRLSCAASGFTFSNAWMHWVRQAPGKGLEWVAQIKDKGNAYAAYYAPSVKGRFTISRDDSKNSIYLQMNSLKTEDTAVYYCHYVHYASASTVLPAFGVDAWGQGTTVTVSS VL: DIVMTQSPLSLPVTPGEPASISCQASQELVHGNRNTYLHWYQQKPGQAPRLLIYKVSNRFPGVPDRFSGSGSGTDFTLKISRVEAEDVGVYYCAQGTSVPFTFGQGTKLEIK | 0.9 |
